Assay [1] has as its target T1, human 4Ig-B7-H3-His protein (human, UniProt Q5ZPR3 29-466).
T1 construct: also called human B7-H3 protein
T1 sequence: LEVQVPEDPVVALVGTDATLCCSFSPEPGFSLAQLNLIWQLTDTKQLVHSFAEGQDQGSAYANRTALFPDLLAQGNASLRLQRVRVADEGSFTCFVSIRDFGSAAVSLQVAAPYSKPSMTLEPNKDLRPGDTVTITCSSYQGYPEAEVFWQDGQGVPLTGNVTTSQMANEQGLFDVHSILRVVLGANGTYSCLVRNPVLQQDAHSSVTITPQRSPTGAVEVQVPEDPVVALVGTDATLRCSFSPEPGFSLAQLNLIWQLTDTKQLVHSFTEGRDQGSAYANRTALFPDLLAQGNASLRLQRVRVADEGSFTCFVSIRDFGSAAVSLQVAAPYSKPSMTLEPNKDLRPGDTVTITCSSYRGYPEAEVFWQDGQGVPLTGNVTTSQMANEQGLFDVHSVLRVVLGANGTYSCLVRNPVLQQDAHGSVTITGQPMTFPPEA
Nature of the assay: ELISA, plate coated with human 4Ig-B7-H3-His, detection with anti-human IgG HRP, OD450. The procedure:
The binding activity of antibodies was analyzed by ELISA. 96-well ELISA plates were coated with human 4Ig-B7-H3-His protein or 2Ig-B7-H3-His protein (1 μg/well, prepared in Examples 1 and 2) and incubated overnight at 4° C. The plates were washed 3 times with 1×PBST and then blocked with 5% skim milk at 37° C. for 2 h. After washing 3 times with 1×PBST, the anti-B7-H3 antibody of the present disclosure was used as the primary antibody and added to the ELISA plates in 5-fold gradient dilution starting from 2 μg/mL with a total of 8 concentrations: 2,000 ng/mL, 400 ng/mL, 80 ng/mL, 16 ng/mL, 3.2 ng/mL, 0.64 ng/mL, 0.128 ng/mL and 0.0256 ng/mL respectively. The plates were incubated at 37° C. for 2 h with hBRCA84D as the positive control antibody. After washing 5 times with 1×PBST, Anti-Human IgG HRP (Jackson, 109-035-003, 1:5000) was used as the secondary antibody and incubated at 37° C. for 1 h. After washing 5 times with 1×PBST, color developing solution TMB was added to the plate, and microplate reader (Thermo, Multiskan FC) was used to read OD450 value after termination of the reaction. EC₅₀ was generated by GraphPad.

In assay [2] the target is T2, B7-H3 on surface of tumor cell (786-0, MDA-MB-231, Raji-B7-H3 cells) (human, UniProt Q5ZPR3 29-534).
T2 construct: whole, on cells; The making of Raji-B7-H3 cells is not described; also called B7-H3 on the surface of tumor cells; human B7-H3
T2 sequence (looked up): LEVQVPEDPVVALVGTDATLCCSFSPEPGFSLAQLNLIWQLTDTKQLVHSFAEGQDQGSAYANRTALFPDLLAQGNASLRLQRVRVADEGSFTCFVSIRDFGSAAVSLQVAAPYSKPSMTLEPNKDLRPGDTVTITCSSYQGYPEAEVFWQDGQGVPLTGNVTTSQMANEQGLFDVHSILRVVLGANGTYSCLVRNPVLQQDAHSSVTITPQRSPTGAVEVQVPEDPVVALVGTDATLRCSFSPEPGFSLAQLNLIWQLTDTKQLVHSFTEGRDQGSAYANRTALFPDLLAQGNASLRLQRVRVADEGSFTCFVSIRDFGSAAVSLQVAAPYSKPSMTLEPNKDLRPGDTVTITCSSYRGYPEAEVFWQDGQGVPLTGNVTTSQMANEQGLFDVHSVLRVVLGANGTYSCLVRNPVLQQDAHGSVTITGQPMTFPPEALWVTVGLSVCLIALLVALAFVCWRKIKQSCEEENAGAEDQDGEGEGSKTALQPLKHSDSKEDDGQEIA
Nature of the assay: FACS on Raji-B7-H3 cells. The procedure:
(§1) The binding activity of antibodies to B7-H3 on the surface of tumor cells was analyzed by FACS. Mean fluorescence intensity (MFI) and EC₅₀ detected by FACS indicate the binding activity of the antibody to cells. After 786-0 and MDA-MB-231 cells were digested, they were resuspended in 2% FBS-PBS solution and counted. After raji-B7-H3 cells were collected, they were resuspended in 2% FBS-PBS and counted. The above cells were plated in a cell plate with 1×10⁵ cells per well. The anti-B7-H3 antibody of the present disclosure was used as the primary antibody and added to cell plates in gradient dilution starting from 20 μg/mL with a total of 8 concentrations: 20,000 ng/mL, […], 2,000 ng/mL, 400 ng/mL, 80 ng/mL, 16 ng/mL, 3.2 ng/mL, and 0.64 ng/mL respectively. The plates were incubated at 4° C. for 1 h with hBRCA84D as the positive control antibody. PE-Anti-Human IgG (Biolegend, Cat. No. 409303, 1.25 μl/well) was used as the secondary antibody, washed, and detected for the fluorescence intensity generated by the binding of the antibody to the cell surface by a flow cytometer.

In assay [3] the target is T2, B7-H3 on surface of tumor cell (786-0, …). Nature of the assay: FACS on 786-0 cells. The procedure: as §1
In assay [4] the target is T1, human 4Ig-B7-H3-His protein. The assay is described as follows: Biacore X100 SPR, 4Ig-B7-H3-His coupled to CM5 chip, antibody injected. The source says: The humanized anti-B7-H3 antibodies prepared in Example 4 were subjected to affinity assay by Biacore. The antigen 4Ig-B7-H3-His was first coupled to the surface of a CM5 chip (GE, Cat. No. BR100012), and the active groups of the uncoupled protein were blocked with ethanolamine. After the baseline was stable, the hu39-01, hu65-13, and hBRCA84D antibodies were respectively diluted in equal proportions. The diluted antibodies of each concentration were placed on the sample injection tray of the instrument in sequence, and the program was set to inject samples respectively.

B1: hBRCA84D (antibody, human IgG1, kappa, V domains shown)
VH: EVQLVESGGGLVQPGGSLRLSCAASGFTFSSFGMHWVRQAPGKGLEWVAYISSDSSAIYYADTVKGRFTISRDNAKNSLYLQMNSLRDEDTAVYYCGRGRENIYYGSRLDYWGQGTTVTVSS
VL: DIQLTQSPSFLSASVGDRVTITCKASQNVDTNVAWYQQKPGKAPKALIYSASYRYSGVPSRFSGSGSGTDFTLTISSLQPEDFATYYCQQYNNYPFTFGQGTKLEIKR
notes: Humanized antibody from WO2011/109400; also called positive control antibody hBRCA84D; control antibody hBRCA84D
On to B1, for which the concentration giving a half-maximal response (EC50 (read off the curve)) in assay [1] is around 0.005 µg/mL. Also, the “Mean fluorescence intensity (MFI)” value in assay [2] was 233000. Besides, in assay [3], the EC50 came out at 0.226 µg/mL and the “Mean fluorescence intensity (MFI)” value worked out at 233000. Also, in assay [4], the Kd was 0.455 nM, the koff was found to be 0.000111 s⁻¹ and the kon is 243000 M⁻¹ s⁻¹.

Values taken from patent US20220332829A1 (NANJING SANHOME PHARMACEUTICAL, published 2022).
